# Test results from patent US20040096899A1, “Immunoassay method for membrane-bound matrix metalloprotease” (priority 2000, published 2004).
# B1: MMP-19: matrix metalloproteinase subjected to MT1-MMP sandwich EIA for cross reactivity (protein)
# chain: RVLGLAEVAPVDYLSQYGYLQKPLEGSNNFKPEDITEALRAFQEASELPVSGQLDDATRARMRQPRCGLEDPFNQKTLKYLLLGRWRKKHLTFRILNLPSTLPPHTARAALRQAFQDWSNVAPLTFQEVQAGAADIRLSFHGRQSSYCSNTFDGPGRVLAHADIPELGSVHFDEDEFWTEGTYRGVNLRIIAAHEVGHALGLGHSRYSQALMAPVYEGYRPHFKLHPDDVAGIQALYGKKSPVIRDEEEEETELPTVPPVPTEPSPMPDPCSSELDAMMLGPRGKTYAFKGDYVWTVSDSGPGPLFRVSALWEGLPGNLDAAVYSPRTQWIHFFKGDKVWRYINFKMSPGFPKKLNRVEPNLDAALYWPLNQKVFLFKGSGYWQWDELARTDFSSYPKPIKGLFTGVPNQPSAAMSWQDGRVYFFKGKVYWRLNQQLRVEKGYPRNISHNWMHCRPRTIDTTPSGGNTTPSGTGITLDTTLSATETTFEY
# B2: MMP-2: matrix metalloproteinase subjected to MT1-MMP sandwich EIA for cross reactivity (protein)
# chain: APSPIIKFPGDVAPKTDKELAVQYLNTFYGCPKESCNLFVLKDTLKKMQKFFGLPQTGDLDQNTIETMRKPRCGNPDVANYNFFPRKPKWDKNQITYRIIGYTPDLDPETVDDAFARAFQVWSDVTPLRFSRIHDGEADIMINFGRWEHGDGYPFDGKDGLLAHAFAPGTGVGGDSHFDDDELWTLGEGQVVRVKYGNADGEYCKFPFLFNGKEYNSCTDTGRSDGFLWCSTTYNFEKDGKYGFCPHEALFTMGGNAEGQPCKFPFRFQGTSYDSCTTEGRTDGYRWCGTTEDYDRDKKYGFCPETAMSTVGGNSEGAPCVFPFTFLGNKYESCTSAGRSDGKMWCATTANYDDDRKWGFCPDQGYSLFLVAAHEFGHAMGLEHSQDPGALMAPIYTYTKNFRLSQDDIKGIQELYGASPDIDLGTGPTPTLGPVTPEICKQDIVFDGIAQIRGEIFFFKDRFIWRTVTPRDKPMGPLLVATFWPELPEKIDAVYEAPQEEKAVFFAGNEYWIYSASTLERGYPKPLTSLGLPPDVQRVDAAFNWSKNKKTYIFAGDKFWRYNEVKKKMDPGFPKLIADAWNAIPDNLDAVVDLQGGGHSYFFKGAYYLKLENQSLKSVKFGSIKSDWLGC
# B3: MMP-9: matrix metalloproteinase subjected to MT1-MMP sandwich EIA for cross reactivity (protein)
# chain: APRQRQSTLVLFPGDLRTNLTDRQLAEEYLYRYGYTRVAEMRGESKSLGPALLLLQKQLSLPETGELDSATLKAMRTPRCGVPDLGRFQTFEGDLKWHHHNITYWIQNYSEDLPRAVIDDAFARAFALWSAVTPLTFTRVYSRDADIVIQFGVAEHGDGYPFDGKDGLLAHAFPPGPGIQGDAHFDDDELWSLGKGVVVPTRFGNADGAACHFPFIFEGRSYSACTTDGRSDGLPWCSTTANYDTDDRFGFCPSERLYTQDGNADGKPCQFPFIFQGQSYSACTTDGRSDGYRWCATTANYDRDKLFGFCPTRADSTVMGGNSAGELCVFPFTFLGKEYSTCTSEGRGDGRLWCATTSNFDSDKKWGFCPDQGYSLFLVAAHEFGHALGLDHSSVPEALMYPMYRFTEGPPLHKDDVNGIRHLYGPRPEPEPRPPTTTTPQPTAPPTVCPTGPPTVHPSERPTAGPTGPPSAGPTGPPTAGPSTATTVPLSPVDDACNVNIFDAIAEIGNQLYLFKDGKYWRFSEGRGSRPQGPFLIADKWPALPRKLDSVFEERLSKKLFFFSGRQVWVYTGASVLGPRRLDKLGLGADVAQVTGALRSGRGKMLLFSGRRLWRFDVKAQMVDPRSASEVDRMFPGVPLDTHDVFQYREKAYFCQDRFYWRVSSRSELNQVDQVGYVTYDILQCPED
# B4: MMP-1: matrix metalloproteinase subjected to MT1-MMP sandwich EIA for cross reactivity (protein)
# chain: FPATLETQEQDVDLVQKYLEKYYNLKNDGRQVEKRRNSGPVVEKLKQMQEFFGLKVTGKPDAETLKVMKQPRCGVPDVAQFVLTEGNPRWEQTHLTYRIENYTPDLPRADVDHAIEKAFQLWSNVTPLTFTKVSEGQADIMISFVRGDHRDNSPFDGPGGNLAHAFQPGPGIGGDAHFDEDERWTNNFREYNLHRVAAHELGHSLGLSHSTDIGALMYPSYTFSGDVQLAQDDIDGIQAIYGRSQNPVQPIGPQTPKACDSKLTFDAITTIRGEVMFFKDRFYMRTNPFYPEVELNFISVFWPQLPNGLEAAYEFADRDEVRFFKGNKYWAVQGQNVLHGYPKDIYSSFGFPRTVKHIDAALSEENTGKTYFFVANKYWRYDEYKRSMDPGYPKMIAHDFPGIGHKVDAVFMKDGFFYFFHGTRQYKFDPKTKRILTLQKANSWFNCRKN
# B5: MMP-20: matrix metalloproteinase subjected to MT1-MMP sandwich EIA for cross reactivity (protein)
# chain: APSLVAASPRTWRNNYRLAQAYLDKYYTNKEGHQIGEMVARGSNSMIRKIKELQAFFGLQVTGKLDQTTMNVIKKPRCGVPDVANYRLFPGEPKWKKNTLTYRISKYTPSMSSVEVDKAVEMALQAWSSAVPLSFVRINSGEADIMISFENGDHGDSYPFDGPRGTLAHAFAPGEGLGGDTHFDNAEKWTMGTNGFNLFTVAAHEFGHALGLAHSTDPSALMYPTYKYKNPYGFHLPKDDVKGIQALYGPRKVFLGKPTLPHAPHHKPSIPDLCDSSSSFDAVTMLGKELLLFKDRIFWRRQVHLRTGIRPSTITSSFPQLMSNVDAAYEVAERGTAYFFKGPHYWITRGFQMQGPPRTIYDFGFPRHVQQIDAAVYLREPQKTLFFVGDEYYSYDERKRKMEKDYPKNTEEEFSGVNGQIDAAVELNGYIYFFSGPKTYKYDTEKEDVVSVVKSSSWIGC
# Target: T1, MT1-MMP sandwich EIA (solid-phase antibody 222-2D12, labeled antibody 222-1D8) (Homo sapiens, UniProt P50281)
# T1 construct: 488 amino acid residues of Δ MT1-MMP (G^48 to G^53) which lacks the signal peptide and part of the propeptide region; made in house; host or cells: E. coli
# Assay: Specificity test: cross reactivity on MT1-MMP sandwich EIA
# Type: binding
# Settings: concentration 1 μg/mL; blank 0.027
# Procedure: Monoclonal antibodies (e.g., 333-2D12 (IgG)) were dissolved in 0.1 M phosphate buffer, pH 7.0 to a concentration of 25 μg/mL. The monoclonal antibody solution was added to each well of a 96-well microwell (Maxisorp; Nunc-Immuno Module) at 100 μL per well and allowed to stand at 4° C. for 24 hrs. […] The solid-phase antibodies were preserved at 4° C.
# Standard antigens or samples to be assayed were dispensed into a 96-well vinyl plate at 25 μL each. To each well was added a dilution buffer in aliquots of 100 μL, followed by mixing. An aliquot (100 μL) of the resultant mixture was taken out, dispensed into an antibody-solid phased plate from which a blocking solution was removed by washing. The plate was then allowed to stand at 4° C. for 16 hours.
# […] antibody 222-1D8 (Fab′-HRP) was diluted with a blocking solution to a concentration of 0.4 μg/mL. The reaction solution was removed from the antibody-solid phased plate where the primary reaction was completed. The plate was washed with a washing liquid three times and an aliquot (100 μL) of the labeled antibody solution was added to each well. The plate was allowed to stand at room temperature for 1 hour.
# After completion of the reaction, the labeled antibody solution was removed. The plate was then washed with a washing liquid three times, and a TMB solution (CALBIOCHEM) was added to each well at 100 μL. The mixture was allowed to react at room temperature for 20 minute. The reaction was stopped with the addition of 2 N sulfuric acid at 100 μL per well. The reaction mixture was measured for A450 with a microplate reader (MPR-A4; Tosoh).
# Each of MMP-1, -2, -3, -4, -7, -8, -9, -13, -19 and -20 was prepared to give a concentration of 1 μg/mL, and subjected to MT1-MMP sandwich EIA. A450 was measured. When MT1-MMP was subjected to sandwich EIA at 0.16 μg/mL, the absorbance was 2.206. However, when the above MMPs were subjected, their absorbances were only an extent of 0.024 to 0.071. Accordingly, it has been verified that MT1-MMP sandwich EIA is specifically reactive with MT1-MMP.
row,A450,Molecule
1,0.027,B1
2,0.024,B2
3,0.039,B3
4,0.025,B4
5,0.071,B5
